Experimental data reported in article PMC5597230, “Identification and characterization of preferred DNA-binding sites for the Thermus thermophilus transcriptional regulator FadR”.

B1: ST2_FadR_R5_wt (dsDNA)
DNA 1: AGGAATTCGTGCAGAGGTGAATTTGGACTTAGTCCAATTACCATCCCTCCAGAAGCTTGG
DNA 2: CCAAGCTTCTGGAGGGATGGTAATTGGACTAAGTCCAAATTCACCTCTGCACGAATTCCT
B2: ST2_FadR_TTHB017 (dsDNA)
DNA 1: AGGAATTCGTGCAGAGGTGAATTTATACTGGGTCCAATTACCATCCCTCCAGAAGCTTGG
DNA 2: CCAAGCTTCTGGAGGGATGGTAATTGGACCCAGTATAAATTCACCTCTGCACGAATTCCT
B3: ST2_FadR_TTHA1463 (dsDNA)
DNA 1: AGGAATTCGTGCAGAGGTGAATTTGAACCCGGTACAATTACCATCCCTCCAGAAGCTTGG
DNA 2: CCAAGCTTCTGGAGGGATGGTAATTGTACCGGGTTCAAATTCACCTCTGCACGAATTCCT
B4: ST2_FadR_TTHA0846 (dsDNA)
DNA 1: AGGAATTCGTGCAGAGGTGAATTTATACTCAGTACATTTACCATCCCTCCAGAAGCTTGG
DNA 2: CCAAGCTTCTGGAGGGATGGTAAATGTACTGAGTATAAATTCACCTCTGCACGAATTCCT
B5: ST2_FadR_TTHA1144 (dsDNA)
DNA 1: AGGAATTCGTGCAGAGGTGAATTTAGACTCGGTCAAATTACCATCCCTCCAGAAGCTTGG
DNA 2: CCAAGCTTCTGGAGGGATGGTAATTTGACCGAGTCTAAATTCACCTCTGCACGAATTCCT
B6: ST2_FadR_TTHA0604 (dsDNA)
DNA 1: AGGAATTCGTGCAGAGGTGAATTTATACTGGGTCTAATTACCATCCCTCCAGAAGCTTGG
DNA 2: CCAAGCTTCTGGAGGGATGGTAATTAGACCCAGTATAAATTCACCTCTGCACGAATTCCT
B7: ST2_FadR_TTHA0390 (dsDNA)
DNA 1: AGGAATTCGTGCAGAGGTGAATTTGAACCGGGTATAATTACCATCCCTCCAGAAGCTTGG
DNA 2: CCAAGCTTCTGGAGGGATGGTAATTATACCCGGTTCAAATTCACCTCTGCACGAATTCCT
B8: ST2_FadR_TTHA1118 (dsDNA)
DNA 1: AGGAATTCGTGCAGAGGTGAATTTATACTCGGTAAAATTACCATCCCTCCAGAAGCTTGG
DNA 2: CCAAGCTTCTGGAGGGATGGTAATTTTACCGAGTATAAATTCACCTCTGCACGAATTCCT
B9: ST2_FadR_TTHA0103 (dsDNA)
DNA 1: AGGAATTCGTGCAGAGGTGAATTTGGACCTGGTAAAATTACCATCCCTCCAGAAGCTTGG
DNA 2: CCAAGCTTCTGGAGGGATGGTAATTTTACCAGGTCCAAATTCACCTCTGCACGAATTCCT
B10: ST2_FadR_TTHA0402 (dsDNA)
DNA 1: AGGAATTCGTGCAGAGGTGAATTTGAACCCAGTATAATTACCATCCCTCCAGAAGCTTGG
DNA 2: CCAAGCTTCTGGAGGGATGGTAATTATACTGGGTTCAAATTCACCTCTGCACGAATTCCT
B11: ST2_FadR_R5_m5 (dsDNA)
DNA 1: AGGAATTCGTGCAGAGGTGAATTTGGGCTTAGTCCAATTACCATCCCTCCAGAAGCTTGG
DNA 2: CCAAGCTTCTGGAGGGATGGTAATTGGACTAAGCCCAAATTCACCTCTGCACGAATTCCT
B12: ST2_FadR_R5_m4 (dsDNA)
DNA 1: AGGAATTCGTGCAGAGGTGAATTTGCACTTAGTCCAATTACCATCCCTCCAGAAGCTTGG
DNA 2: CCAAGCTTCTGGAGGGATGGTAATTGGACTAAGTGCAAATTCACCTCTGCACGAATTCCT
B13: ST2_FadR_R5_m3 (dsDNA)
DNA 1: AGGAATTCGTGCAGAGGTGAATTTCGACTTAGTCCAATTACCATCCCTCCAGAAGCTTGG
DNA 2: CCAAGCTTCTGGAGGGATGGTAATTGGACTAAGTCGAAATTCACCTCTGCACGAATTCCT
B14: ST2_FadR_R5_m7 (dsDNA)
DNA 1: AGGAATTCGTGCAGAGGTGAATTTGGACATAGTCCAATTACCATCCCTCCAGAAGCTTGG
DNA 2: CCAAGCTTCTGGAGGGATGGTAATTGGACTATGTCCAAATTCACCTCTGCACGAATTCCT
B15: ST2_FadR_R5_m1 (dsDNA)
DNA 1: AGGAATTCGTGCAGAGGTGAATGTGGACTTAGTCCAATTACCATCCCTCCAGAAGCTTGG
DNA 2: CCAAGCTTCTGGAGGGATGGTAATTGGACTAAGTCCACATTCACCTCTGCACGAATTCCT

What follows are binders tested against T1, FadR (Thermus thermophilus HB8, UniProt Q5SM42 1-205) (assay: EMSA; EMSA as in previous SbtR study (buffer, salt, pH, temperature not given in the material); FadR titrations up to 600 nM, IRD700-labeled probes). Details: protein: recombinant; tags: none stated (pET-11a); chain copies: 2; label: IRD700.
T1 sequence: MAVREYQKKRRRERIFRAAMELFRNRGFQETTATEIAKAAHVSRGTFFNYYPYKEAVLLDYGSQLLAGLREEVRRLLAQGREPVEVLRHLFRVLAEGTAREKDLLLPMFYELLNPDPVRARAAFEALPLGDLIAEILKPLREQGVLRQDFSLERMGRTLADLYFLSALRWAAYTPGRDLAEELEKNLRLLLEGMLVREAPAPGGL

Question: How did the Kd turn out when B1 was run?
Answer: 0.17 nM

Each binder was assayed against T1, FadR (assay: EMSA; very low KD stated; value in figure only; EMSA as in previous SbtR study (buffer, salt, pH, temperature not given in the material); FadR titrations up to 600 nM, IRD700-labeled probes). Details: protein: recombinant; tags: none stated (pET-11a); chain copies: 2; label: IRD700.

Question: Does B2 bind?
Answer: binds

Question: Does B3 bind?
Answer: binds

These binders were tested against T1, FadR (assay: EMSA; Kd in figure only; all promoter probes 0.053-11 nM; EMSA as in previous SbtR study (buffer, salt, pH, temperature not given in the material); FadR titrations up to 600 nM, IRD700-labeled probes). Details: protein: recombinant; tags: none stated (pET-11a); chain copies: 2; label: IRD700.

Question: Does B4 bind?
Answer: binds

Question: Does B5 bind?
Answer: binds

Question: Does B6 bind?
Answer: binds

Question: Does B7 bind?
Answer: binds

Question: Does B8 bind?
Answer: binds

Question: Does B9 bind?
Answer: binds

Question: Does B10 bind?
Answer: binds

Each binder was assayed against T1, FadR (assay: EMSA; range stated for m1,m3,m4,m5,m7; exact value only in figure; EMSA as in previous SbtR study (buffer, salt, pH, temperature not given in the material); FadR titrations up to 600 nM, IRD700-labeled probes). Details: protein: recombinant; tags: none stated (pET-11a); chain copies: 2; label: IRD700.

Question: B11 was tested. Which Kd did it give?
Answer: ~4.69 nM

Question: For B12, which Kd is on record?
Answer: ~4.69 nM

Question: Which Kd does the source give for B13 here?
Answer: ~4.69 nM

Question: Which Kd does the source give for B14 here?
Answer: ~4.69 nM

Question: Which Kd does the source give for B15 here?
Answer: ~4.69 nM
